Test results as given in the supplement of paper PMC10126150.
± gives the standard deviation of the averaged measurements.
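Also: ATP exposure 15 min at 22 °C before imaging.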

These sequences were tested on ATP (assay: switch fluorescence ratio, 500 uM ATP over buffer (Cy3 cluster intensity, sum of 5 cycles each) (fold (ratio)); higher = stronger signal-on switching upon ATP binding; sequences stand for … in TCGTCGGCAGCGTCAGATGTGTATAAGAGACAGTTTTTTTTTTTTTTTTTTTTTTTTT…TC). Settings: aptamer strand: ATP DNA aptamer (quencher-CACCTGGGGGAGTATTGCGGAGGAAGG + anchor), 100 nM annealed; ATP concentration: 500 uM.
Procedure, shortened: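 Cy3-labelled switching-strand clusters on a modified Illumina MiSeq flow-cell were annealed to 100 nM quencher-labelled ATP aptamer, imaged in selection buffer, then imaged after 15 min with 500 uM ATP at 22 °C. Five buffer/ATP cycles ran, with NaOH stripping and re-annealing between them. The fluorescence ratio is summed target-cycle over summed buffer-cycle Cy3 intensity per cluster, averaged per switch-domain sequence. Clusters outside 100-1000 RFU were excluded.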
ACGATAGTTA showed a switch fluorescence ratio of 0.992 ± 0.01. Work on AAAGGGGGAC yielded a switch fluorescence ratio of 1.04 ± 0.089. Sequence TTGGTAGTGC has a switch fluorescence ratio of 0.973 ± 0.015. GGCCTCAAAT showed a switch fluorescence ratio of 1.01 ± 0.037. For TTGTGTTGCG, the switch fluorescence ratio was 1.03 ± 0.051. With ACGCTGGAAG the switch fluorescence ratio was 0.9892 ± 0.0067. Work on GCTTAAAGAC yielded a switch fluorescence ratio of 1.1 ± 0.013. Sequence CAGTCTAAGT has a switch fluorescence ratio of 1.02 ± 0.014. Work on TAAAAGGGTC yielded a switch fluorescence ratio of 0.942 ± 0.085. GGCTTTTGGA showed a switch fluorescence ratio of 0.982 ± 0.014. In the case of AGTGGGGATG, the switch fluorescence ratio is reported as 1.01 ± 0.013. For TTAGACTTTT, the switch fluorescence ratio was 1.03 ± 0.012. In the case of TTTATCGTGG, the switch fluorescence ratio is reported as 0.9721 ± 0.002. AATTTAAGAA gave a switch fluorescence ratio of 0.971 ± 0.013. ATCCGGGATG gave a switch fluorescence ratio of 1.03 ± 0.021. Sequence GAGGCTACTG has a switch fluorescence ratio of 0.9901 ± 0.0082. ACAGCAGTTG gave a switch fluorescence ratio of 1.04 ± 0.042. TTAAAAGGTT gave a switch fluorescence ratio of 1.01 ± 0.029. Sequence GAGTAGGGGG has a switch fluorescence ratio of 0.993 ± 0.033. With CAGGGCTATG the switch fluorescence ratio was 1.01 ± 0.016. Work on ATTAGAAGAC yielded a switch fluorescence ratio of 1 ± 0.027. With GGGGCGGGAG the switch fluorescence ratio was 1.03 ± 0.042. GGTCTAGAAA showed a switch fluorescence ratio of 1.21 ± 0.3. CAATGGATGA gave a switch fluorescence ratio of 1 ± 0.015. In the case of TCGAGTATAT, the switch fluorescence ratio is reported as 0.981 ± 0.021. In the case of TTATGGGGAG, the switch fluorescence ratio is reported as 1.005 ± 0.0034. ACGCAGAACG gave a switch fluorescence ratio of 1.36 ± 0.074. With GAAGTGAGGT the switch fluorescence ratio was 1.01 ± 0.016. With ATGTACGTAG the switch fluorescence ratio was 1.03 ± 0.025. GAGAGTTAAG showed a switch fluorescence ratio of 0.9677 ± 0.0074. For GTAGTATCAG, the switch fluorescence ratio was 1 ± 0.017. Work on CTGGGTATTC yielded a switch fluorescence ratio of 1.03 ± 0.032. Work on TTGTGATGTG yielded a switch fluorescence ratio of 0.986 ± 0.023. Sequence TCTTTTGAGG has a switch fluorescence ratio of 1.02 ± 0.056. TTAGGTGCAA showed a switch fluorescence ratio of 1.17 ± 0.11. Work on TACGACGGGC yielded a switch fluorescence ratio of 1.57 ± 0.5. ATGTCTGTAA gave a switch fluorescence ratio of 1 ± 0.013. CGTCTTTTAT was tested, and the switch fluorescence ratio was 0.9935 ± 0.0043. In the case of ACCAGCCGGG, the switch fluorescence ratio is reported as 1.09 ± 0.062. With TGAGCACCGT the switch fluorescence ratio was 1 ± 0.017. In the case of GGTTCAAGGC, the switch fluorescence ratio is reported as 1.05 ± 0.051. With TAAAGAAGGT the switch fluorescence ratio was 1.01 ± 0.033. For TCGTTAGGGG, the switch fluorescence ratio was 0.999 ± 0.019. Work on ATGCGGCATT yielded a switch fluorescence ratio of 1.03 ± 0.044. AAATACGTTT showed a switch fluorescence ratio of 1 ± 0.016. For ATCTAGGTCA, the switch fluorescence ratio was 1.02 ± 0.037. TTGAGGGTAA showed a switch fluorescence ratio of 0.99263 ± 0.00084. With CAGCCCTAGG the switch fluorescence ratio was 1.09 ± 0.053. In the case of GCGCGGGGGG, the switch fluorescence ratio is reported as 1.02 ± 0.03. In the case of ACTGCCATCG, the switch fluorescence ratio is reported as 1.1 ± 0.023. TGTGAGTTGC gave a switch fluorescence ratio of 0.949 ± 0.0069. For TAGCGGAGGC, the switch fluorescence ratio was 1.03 ± 0.03. In the case of GGGGTTGGAG, the switch fluorescence ratio is reported as 0.979 ± 0.022. ACTCATGTAA was tested, and the switch fluorescence ratio was 1.03 ± 0.015. TTTTTCCATA was tested, and the switch fluorescence ratio was 1 ± 0.022. Work on CGGGGTTGAA yielded a switch fluorescence ratio of 0.998 ± 0.03. With ACGGCTCTGG the switch fluorescence ratio was 1.015 ± 0.0057. For GGGACAGCGT, the switch fluorescence ratio was 1.03 ± 0.025. Sequence TACCGTATTT has a switch fluorescence ratio of 1.04 ± 0.027. For GTGGGAGCGT, the switch fluorescence ratio was 0.97882 ± 0.00039. With ATATTGCTCG the switch fluorescence ratio was 1.05 ± 0.06. Sequence GGGTGCGGGC has a switch fluorescence ratio of 1.04 ± 0.098. CTCATATGCA was tested, and the switch fluorescence ratio was 1 ± 0.029. In the case of GGGGGTGGAG, the switch fluorescence ratio is reported as 1 ± 0.041. Work on GTGGAAATCA yielded a switch fluorescence ratio of 1.01 ± 0.029. GACAGAGGTT showed a switch fluorescence ratio of 1 ± 0.021. Work on GGGGCTTCTG yielded a switch fluorescence ratio of 1.03 ± 0.019. Sequence AGCTATTTGC has a switch fluorescence ratio of 0.983 ± 0.048. For TGCTTGGGGG, the switch fluorescence ratio was 0.979 ± 0.016. AGGTCGAATT was tested, and the switch fluorescence ratio was 1 ± 0.051. TCAGTAATTT gave a switch fluorescence ratio of 1.03 ± 0.032. With CACCAGGAAT the switch fluorescence ratio was 1.08 ± 0.021. TGTTTGTGTA gave a switch fluorescence ratio of 1.03 ± 0.022. With TTTGTTTGGG the switch fluorescence ratio was 0.998 ± 0.033. Sequence TCGGTATGAC has a switch fluorescence ratio of 1.07 ± 0.029. CCAGTTAAGA gave a switch fluorescence ratio of 0.989 ± 0.024. For TATCCTGGCG, the switch fluorescence ratio was 1.03 ± 0.057. Sequence GGCTGAGGGG has a switch fluorescence ratio of 0.972 ± 0.042. For GGTAAGACGT, the switch fluorescence ratio was 0.999 ± 0.038. Work on TTTCAGTTCC yielded a switch fluorescence ratio of 1.08 ± 0.002. Work on AAGTACCCGG yielded a switch fluorescence ratio of 1.14 ± 0.026. Sequence GGGCCATATT has a switch fluorescence ratio of 0.963 ± 0.044. Sequence TTTCGGGGTA has a switch fluorescence ratio of 1 ± 0.045. TTCCATGGCA gave a switch fluorescence ratio of 1.037 ± 0.0056. Work on CCGGGGGCCT yielded a switch fluorescence ratio of 1.08 ± 0.032. GAGTGTTAGG gave a switch fluorescence ratio of 0.996 ± 0.013. With GGGGCAGTTA the switch fluorescence ratio was 1 ± 0.025. CATTAACGGG showed a switch fluorescence ratio of 1.02 ± 0.013. CCATGCCACA gave a switch fluorescence ratio of 1.05 ± 0.029. Work on AGGATGAATA yielded a switch fluorescence ratio of 0.9974 ± 0.0019. ACAAATGCAA showed a switch fluorescence ratio of 1.12 ± 0.037. TTTGACAGCC gave a switch fluorescence ratio of 1.06 ± 0.042. Sequence TGATTTTTAT has a switch fluorescence ratio of 1.011 ± 0.0089. GGGAGGGGCC showed a switch fluorescence ratio of 1.01 ± 0.026. TCTTCCTGGA showed a switch fluorescence ratio of 1.08 ± 0.039. TAGCTTATAA was tested, and the switch fluorescence ratio was 1.08 ± 0.024. GTACTATTAT was tested, and the switch fluorescence ratio was 1.038 ± 0.0052. For CGCTAGATTT, the switch fluorescence ratio was 0.996 ± 0.031. CGTGAAAGCG was tested, and the switch fluorescence ratio was 0.9683 ± 0.005. In the case of AGGGCTGTTA, the switch fluorescence ratio is reported as 0.998 ± 0.033. GGGTTCTAGT gave a switch fluorescence ratio of 0.9972 ± 0.008. Sequence GGTGTTGGGC has a switch fluorescence ratio of 0.998 ± 0.067. For TGGTTTCAGA, the switch fluorescence ratio was 0.984 ± 0.019. With TGGAATGCGC the switch fluorescence ratio was 1.24 ± 0.36. TTTGAGAAAT was tested, and the switch fluorescence ratio was 0.994 ± 0.029. Sequence AATGAGTGGA has a switch fluorescence ratio of 1.008 ± 0.0063. TTGTGTTTCT gave a switch fluorescence ratio of 0.9974 ± 0.0066. TTCCGAGTTC showed a switch fluorescence ratio of 1.15 ± 0.13. Work on TGCAATTTTT yielded a switch fluorescence ratio of 1.04 ± 0.077. For AATCGAATAT, the switch fluorescence ratio was 1 ± 0.015. Work on TTGGTAGGGT yielded a switch fluorescence ratio of 0.995 ± 0.031. For TTACATGAAT, the switch fluorescence ratio was 1.04 ± 0.033. In the case of ATGGATACGG, the switch fluorescence ratio is reported as 1.02 ± 0.011. TTGTGCCGGG gave a switch fluorescence ratio of 0.9391 ± 0.0045. For AAGTGCGACC, the switch fluorescence ratio was 1.03 ± 0.057. AAGATTTCGG was tested, and the switch fluorescence ratio was 1.015 ± 0.0084. Sequence TTACGCGAAA has a switch fluorescence ratio of 2.57 ± 2.1. Work on ATCCTGGATA yielded a switch fluorescence ratio of 1.003 ± 0.01. GATTTGGCTC gave a switch fluorescence ratio of 1 ± 0.031. In the case of GGGGGGATAT, the switch fluorescence ratio is reported as 1.05 ± 0.097. With AGTAAAGGGT the switch fluorescence ratio was 0.999 ± 0.012. With TTTTATTATT the switch fluorescence ratio was 0.967 ± 0.01. For GTTGGGGAGC, the switch fluorescence ratio was 1.005 ± 0.0066. CGCGTACGTT gave a switch fluorescence ratio of 1.05 ± 0.018. AGTGGACGAC showed a switch fluorescence ratio of 0.9912 ± 0.0079. In the case of TTTGTTGGGG, the switch fluorescence ratio is reported as 1.02 ± 0.011. In the case of GAAGGCCCTG, the switch fluorescence ratio is reported as 1.01 ± 0.04. TATAGGCAGG was tested, and the switch fluorescence ratio was 0.9772 ± 0.008. For CAAGACAACT, the switch fluorescence ratio was 1.03 ± 0.033. With ATCAAGGGTT the switch fluorescence ratio was 0.991 ± 0.025. With TGATTTGGCT the switch fluorescence ratio was 1.02 ± 0.031. Work on TTTCGTCTGG yielded a switch fluorescence ratio of 0.955 ± 0.062. With ACTTTCTGGA the switch fluorescence ratio was 1 ± 0.024. In the case of CGTCTGAATG, the switch fluorescence ratio is reported as 0.9983 ± 0.0024. For GGAGAGAGGG, the switch fluorescence ratio was 1.02 ± 0.044. GGTGTGAGAG showed a switch fluorescence ratio of 1.02 ± 0.038. Work on TGCATGAAGC yielded a switch fluorescence ratio of 1.034 ± 0.0057. With TTCTAAAGTA the switch fluorescence ratio was 0.994 ± 0.014. GTGGTCAGGC gave a switch fluorescence ratio of 0.975 ± 0.022. With AAGTAGGTAT the switch fluorescence ratio was 1.02 ± 0.011. Sequence TGGGGAGGGC has a switch fluorescence ratio of 1 ± 0.035. TAGGAGTGAA gave a switch fluorescence ratio of 0.9792 ± 0.0021. Work on ATCTTGTGGC yielded a switch fluorescence ratio of 0.972 ± 0.032. Work on CTAATATTAT yielded a switch fluorescence ratio of 1.01 ± 0.027. With GCTAATTGGG the switch fluorescence ratio was 1.004 ± 0.0021. ATCATTTAGT showed a switch fluorescence ratio of 0.982 ± 0.027. For TGAAATTTTG, the switch fluorescence ratio was 1.01 ± 0.015. With GAGTTGTTGG the switch fluorescence ratio was 0.968 ± 0.024. TTACTTCGTA was tested, and the switch fluorescence ratio was 1.06 ± 0.07. TTGCCTTTTT showed a switch fluorescence ratio of 0.998 ± 0.028. GATACTGTAG gave a switch fluorescence ratio of 1.09 ± 0.049. For ACTTATAATT, the switch fluorescence ratio was 1.02 ± 0.027. GTTGTGTTTG showed a switch fluorescence ratio of 0.998 ± 0.022. In the case of GGTTCTGGGC, the switch fluorescence ratio is reported as 0.9601 ± 0.0026. GTGAACATAT was tested, and the switch fluorescence ratio was 1.036 ± 0.0022. GGTAAAAGCT was tested, and the switch fluorescence ratio was 1.03 ± 0.057. TAGGGGGATG was tested, and the switch fluorescence ratio was 0.997 ± 0.028.
